The record followed here is paper PMC10135883, “Structural Basis of the Interaction between Human Axin2 and SIAH1 in the Wnt/β-Catenin Signaling Pathway” (Biomolecules, 2023).

Residue numbers refer to the chain shown, from its start. Names may count otherwise.

Broadly, the Kd is the equilibrium constant for the complex coming apart. A word on the stoichiometry N: it is a count of units in the complex or per binding partner.

In test [1] the target is SIAH1-SBD (substrate-binding domain of E3 ubiquitin-protein ligase SIAH1, residues 89-282) (human) (UniProt Q8IUQ4). Nature of the test: ITC; ITC200, 25 °C; 20 mM Tris-HCl pH8.0, 100 mM NaCl; 330 μM Axin2 peptide injected into 30 μM SIAH1; single binding site model. (In ITC the heat of successive injections is recorded.)
Test [2] has as its target SIAH1-SBD (89-282) F165A (human) (UniProt Q8IUQ4). The test is described as above.
Test [3] has as its target T1, SIAH1-SBD (substrate-binding domain of E3 ubiquitin-protein ligase SIAH1, residues 89-282) (human, UniProt Q8IUQ4-1 89-282).
T1 chain: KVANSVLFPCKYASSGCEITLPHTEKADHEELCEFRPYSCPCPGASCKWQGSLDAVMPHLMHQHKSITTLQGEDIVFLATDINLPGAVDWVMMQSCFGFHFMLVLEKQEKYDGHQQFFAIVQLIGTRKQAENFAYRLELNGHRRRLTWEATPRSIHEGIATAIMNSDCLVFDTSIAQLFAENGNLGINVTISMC
The test can be described thus: ITC.

For test [4], the target named is T2, SIAH1-SBD (substrate-binding domain of E3 ubiquitin-protein ligase SIAH1, residues 89-282) (human, UniProt Q8IUQ4-1 89-282).
T2 construct: Cloned from HeLa cDNA into pET28a with a TEV site at the N-terminal; The PDB code is printed as 8HEO in the results and as 8HE0 in the data availability statement; also called SIAH1-SBD_(89–282); SBD of SIAH1; source: E. coli BL21(DE3), purified (Ni-NTA, His-tag cleavage by TEV, Ni-NTA, HiTrap Q, Superdex 200); not shown: His tag, N-terminal, cleaved
T2 sequence (looked up): T1 chain
Nature of the test: crystal structure; SIAH1-SBD mixed with Axin2 (356–376) at a molar ratio of 1:5; 0.1 M Bis-tris propane pH8.4, 24% PEG6000, 4 °C; 2.53 Å. The following applies: both partners purified.

The target of test [5] is T2, SIAH1-SBD (substrate-binding domain of …). The test can be described thus: BLI; Octet Red96; GST-Axin2-GBD or its deletion loaded onto GST biosensors, quenched with GST; dipped into SIAH1-SBD at 0.03-30 μM; free-GST biosensors as controls. The following applies: both partners purified. On the technique in general: Biolayer interferometry detects binding as a change in optical thickness at a sensor tip.

Test [6] addresses T3, wt Axin2_(356–368) peptide used in ITC, Q9Y2T1.
T3 chain: HRLPKEMTPVEPA
The test can be described thus: ITC. The following applies: chain shown with the change;; parent: 8.77.

“Axin2_(356–368) E366A (from UniProt Q9Y2T1 356-368) (peptide)” returned a Kd in test [1] of 97.1 µM.

For the molecule “wt Axin2_(356–368) peptide used in ITC (from UniProt Q9Y2T1 356-368)”, in test [1], the dissociation constant Kd came to 8.77 µM and the stoichiometry N is 1. In test [2], this molecule displayed a Kd of 14.4 µM.

For the molecule HRLPKEMAPVEPATFAAELIS [Axin2_(356–368) single mutant T363A], the Kd in test [3] was found to be 8.7 µM.

B1: Axin2 (residues 356–376) (peptide, UniProt Q9Y2T1 356-376, looked up)
chain: HRLPKEMTPVEPATFAAELIS
notes: human Axin2 (GenBank NM_004655.4), residues 356-376 within the GBD; also called Axin2_(356–376); Axin2 peptide; source: E. coli BL21 (DE3), purified (glutathione sepharose 4B, GST removed by PreScission protease, Superdex 75); not shown: GST, N-terminal, cleaved
On to B1, for which the binding result in test [4] is listed as “binds”.

B2: GST-Axin2-GBD (GSK3 binding domain of Axin2, residues 334-432, with a GST-tag) (domain or fragment, human, UniProt Q9Y2T1 334-432, looked up)
chain: QREMHRSVKANGQVSLPHFPRTHRLPKEMTPVEPATFAAELISRLEKLKLELESRHSLEERLQQIREDEEREGSELTLNSREGAPTQHPLSLLPSGSYE
notes: pGEX-6p-1 construct; also called Axin-GDB; source: E. coli BL21 (DE3), purified (glutathione sepharose 4B); not shown: GST, N-terminal, kept
The molecule B2 had a Kd in test [5] of around 2.2 µM.

B3: SIAH1-SBD (substrate-binding domain of E3 ubiquitin-protein ligase SIAH1, residues 89-282), Q8IUQ4-1 Q159A (protein)
chain: T1 chain with Q71A
Consider B3, for which the Kd in test [6] is 9.1 µM.

B4: SIAH1-SBD (substrate-binding domain of E3 ubiquitin-protein ligase SIAH1, residues 89-282), Q8IUQ4-1 T156A (protein)
chain: T1 chain with T68A
B4: the Kd in test [6] was determined as 10.5 µM.
